Data published in IntAct's records for PubMed 31515488.

B1: L-fucose dehydrogenase (Homo sapiens), Q9BPX1 (parent)
chain: MATGTRYAGKVVVVTGGGRGIGAGIVRAFVNSGARVVICDKDESGGRALEQELPGAVFILCDVTQEDDVKTLVSETIRRFGRLDCVVNNAGHHPPPQRPEETSAQGFRQLLELNLLGTYTLTKLALPYLRKSQGNVINISSLVGAIGQAQAVPYVATKGAVTAMTKALALDESPYGVRVNCISPGNIWTPLWEELAALMPDPRATIREGMLAQPLGRMGQPAEVGAAAVFLASEANFCTGIELLVTGGAELGYGCKASRSTPVDAPDIPS
B2: E3 ubiquitin-protein ligase MYLIP (Homo sapiens), Q8WY64 (parent)
chain: MLCYVTRPDAVLMEVEVEAKANGEDCLNQVCRRLGIIEVDYFGLQFTGSKGESLWLNLRNRISQQMDGLAPYRLKLRVKFFVEPHLILQEQTRHIFFLHIKEALLAGHLLCSPEQAVELSALLAQTKFGDYNQNTAKYNYEELCAKELSSATLNSIVAKHKELEGTSQASAEYQVLQIVSAMENYGIEWHSVRDSEGQKLLIGVGPEGISICKDDFSPINRIAYPVVQMATQSGKNVYLTVTKESGNSIVLLFKMISTRAASGLYRAITETHAFYRCDTVTSAVMMQYSRDLKGHLASLFLNENINLGKKYVFDIKRTSKEVYDHARRALYNAGVVDLVSRNNQSPSHSPLKSSESSMNCSSCEGLSCQQTRVLQEKLRKLKEAMLCMVCCEEEINSTFCPCGHTVCCESCAAQLQSCPVCRSRVEHVQHVYLPTHTSLLNLTVI
partner: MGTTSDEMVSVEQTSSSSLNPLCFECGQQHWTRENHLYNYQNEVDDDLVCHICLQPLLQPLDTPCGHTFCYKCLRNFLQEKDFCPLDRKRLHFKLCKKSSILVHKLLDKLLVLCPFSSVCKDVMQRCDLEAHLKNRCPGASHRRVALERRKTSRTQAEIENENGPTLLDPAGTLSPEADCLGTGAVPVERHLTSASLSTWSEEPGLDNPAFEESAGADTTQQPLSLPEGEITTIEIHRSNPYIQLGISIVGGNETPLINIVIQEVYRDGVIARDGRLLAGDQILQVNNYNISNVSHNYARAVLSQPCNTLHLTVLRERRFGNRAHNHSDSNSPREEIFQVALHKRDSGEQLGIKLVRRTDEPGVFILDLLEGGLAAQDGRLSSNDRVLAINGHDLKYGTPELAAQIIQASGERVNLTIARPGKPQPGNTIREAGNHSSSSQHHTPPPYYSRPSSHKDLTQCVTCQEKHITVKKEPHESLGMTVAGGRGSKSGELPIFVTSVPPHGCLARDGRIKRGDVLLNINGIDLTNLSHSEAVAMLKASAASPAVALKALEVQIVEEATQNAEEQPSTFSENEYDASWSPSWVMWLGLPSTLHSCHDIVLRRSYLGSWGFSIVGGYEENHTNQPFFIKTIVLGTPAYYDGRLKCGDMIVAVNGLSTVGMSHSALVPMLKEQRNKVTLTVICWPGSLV
B3: Endophilin-B2 (Homo sapiens), Q9NR46 (parent)
chain: MDFNMKKLASDAGIFFTRAVQFTEEKFGQAEKTELDAHFENLLARADSTKNWTEKILRQTEVLLQPNPSARVEEFLYEKLDRKVPSRVTNGELLAQYMADAASELGPTTPYGKTLIKVAEAEKQLGAAERDFIHTASISFLTPLRNFLEGDWKTISKERRLLQNRRLDLDACKARLKKAKAAEAKATTVPDFQETRPRNYILSASASALWNDEVDKAEQELRVAQTEFDRQAEVTRLLLEGISSTHVNHLRCLHEFVKSQTTYYAQCYRHMLDLQKQLGRFPGTFVGTTEPASPPLSSTSPTTAAATMPVVPSVASLAPPGEASLCLEEVAPPASGTRKARVLYDYEAADSSELALLADELITVYSLPGMDPDWLIGERGNKKGKVPVTYLELLS
partner: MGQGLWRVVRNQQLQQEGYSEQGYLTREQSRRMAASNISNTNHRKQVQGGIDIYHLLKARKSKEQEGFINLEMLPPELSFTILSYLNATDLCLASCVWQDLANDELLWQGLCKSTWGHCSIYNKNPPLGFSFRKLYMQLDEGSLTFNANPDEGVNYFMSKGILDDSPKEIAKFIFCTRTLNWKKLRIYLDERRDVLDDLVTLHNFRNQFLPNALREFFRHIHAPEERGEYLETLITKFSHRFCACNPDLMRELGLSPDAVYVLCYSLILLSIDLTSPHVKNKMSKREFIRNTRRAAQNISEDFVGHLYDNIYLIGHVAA
B4: Cyclin-D1-binding protein 1 (Homo sapiens), O95273 (parent)
chain: MASATAPAAAVPTLASPLEQLRHLAEELRLLLPRVRVGEAQETTEEFNREMFWRRLNEAAVTVSREATTLTIVFSQLPLPSPQETQKFCEQVHAAIKAFIAVYYLLPKDQGITLRKLVRGATLDIVDGMAQLMEVLSVTPTQSPENNDLISYNSVWVACQQMPQIPRDNKAAALLMLTKNVDFVKDAHEEMEQAVEECDPYSGLLNDTEENNSDNHNHEDDVLGFPSNQDLYWSEDDQELIIPCLALVRASKACLKKIRMLVAENGKKDQVAQLDDIVDISDEISPSVDDLALSIYPPMCHLTVRINSAKLVSVLKKALEITKASHVTPQPEDSWIPLLINAIDHCMNRIKELTQSELEL
partner: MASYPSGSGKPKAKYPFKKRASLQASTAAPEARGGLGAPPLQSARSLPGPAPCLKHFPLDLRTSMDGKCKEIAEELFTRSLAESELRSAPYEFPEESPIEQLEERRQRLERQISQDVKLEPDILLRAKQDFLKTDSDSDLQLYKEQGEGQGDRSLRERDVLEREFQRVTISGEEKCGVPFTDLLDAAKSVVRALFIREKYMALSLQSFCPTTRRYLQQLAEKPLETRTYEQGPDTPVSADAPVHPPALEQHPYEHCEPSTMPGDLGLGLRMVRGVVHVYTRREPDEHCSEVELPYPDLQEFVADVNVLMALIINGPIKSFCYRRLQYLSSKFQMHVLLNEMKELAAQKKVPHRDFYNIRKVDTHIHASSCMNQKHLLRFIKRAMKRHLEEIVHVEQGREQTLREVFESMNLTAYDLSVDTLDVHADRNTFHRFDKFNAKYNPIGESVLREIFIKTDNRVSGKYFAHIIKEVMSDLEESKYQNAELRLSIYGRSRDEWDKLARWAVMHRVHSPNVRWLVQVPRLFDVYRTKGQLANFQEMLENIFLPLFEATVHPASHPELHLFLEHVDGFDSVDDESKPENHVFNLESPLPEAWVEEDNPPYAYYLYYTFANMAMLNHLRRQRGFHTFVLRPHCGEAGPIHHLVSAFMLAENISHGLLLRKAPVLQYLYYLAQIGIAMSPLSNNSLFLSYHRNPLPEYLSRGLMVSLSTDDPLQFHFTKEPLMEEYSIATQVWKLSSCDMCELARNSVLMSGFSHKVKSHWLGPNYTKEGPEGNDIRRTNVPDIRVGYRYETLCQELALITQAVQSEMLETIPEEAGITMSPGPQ

Variants of: B1
Details: with psa1_human PSMA1, P25786
Chain of psa1_human PSMA1, P25786 (P25786 whole entry): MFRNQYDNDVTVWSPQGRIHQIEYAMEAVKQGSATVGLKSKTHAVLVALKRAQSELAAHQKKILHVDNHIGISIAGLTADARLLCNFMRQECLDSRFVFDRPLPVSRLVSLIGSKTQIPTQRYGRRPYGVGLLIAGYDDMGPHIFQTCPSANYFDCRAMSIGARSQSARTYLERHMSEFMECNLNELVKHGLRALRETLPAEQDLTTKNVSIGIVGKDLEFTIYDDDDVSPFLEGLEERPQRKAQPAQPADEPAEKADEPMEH

| Variant | effect of a mutation on the interaction |
| --- | --- |
| MATGTRYAGKVVVVTGGGRGIGAGIVRAFVNSGARVVICDKDESGGRALEQELPGAVFILCDVTQEDDVKTLVSETIRRFGRLDCVVNNAGHHPPPQRPEETSAQGFRQLLELNLLGTYTLTKLALPYLWKSQGNVINISSLVGAIGQAQAVPYVATKGAVTAMTKALALDESPYGVRVNCISPGNIWTPLWEELAALMPDPRATIREGMLAQPLGRMGQPAEVGAAAVFLASEANFCTGIELLVTGGAELGYGCKASRSTPVDAPDIPS [R130W] | disrupting interaction strength |
| MATGTRYAGKVVVVTGGGRGIGAGIVRAFVNSGARVVICDKDESGGRALEQELPGTVFILCDVTQEDDVKTLVSETIRRFGRLDCVVNNAGHHPPPQRPEETSAQGFRQLLELNLLGTYTLTKLALPYLRKSQGNVINISSLVGAIGQAQAVPYVATKGAVTAMTKALALDESPYGVRVNCISPGNIWTPLWEELAALMPDPRATIREGMLAQPLGRMGQPAEVGAAAVFLASEANFCTGIELLVTGGAELGYGCKASRSTPVDAPDIPS [A56T] | with no effect |

Variants of: B1
Details: with sr1ip_human SREK1IP1, Q8N9Q2
Chain of sr1ip_human SREK1IP1, Q8N9Q2 (Q8N9Q2 whole entry): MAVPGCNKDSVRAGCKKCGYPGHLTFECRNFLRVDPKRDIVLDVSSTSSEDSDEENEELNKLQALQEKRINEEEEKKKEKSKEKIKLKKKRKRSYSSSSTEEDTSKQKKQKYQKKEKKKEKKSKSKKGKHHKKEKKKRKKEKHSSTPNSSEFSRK

| Variant | effect of a mutation on the interaction |
| --- | --- |
| MATGTRYAGKVVVVTGGGRGIGAGIVRAFVNSGARVVICDKDESGGRALEQELPGAVFILCDVTQEDDVKTLVSETIRRFGRLDCVVNNAGHHPPPQRPEETSAQGFRQLLELNLLGTYTLTKLALPYLWKSQGNVINISSLVGAIGQAQAVPYVATKGAVTAMTKALALDESPYGVRVNCISPGNIWTPLWEELAALMPDPRATIREGMLAQPLGRMGQPAEVGAAAVFLASEANFCTGIELLVTGGAELGYGCKASRSTPVDAPDIPS [R130W] | disrupting interaction strength |
| MATGTRYAGKVVVVTGGGRGIGAGIVRAFVNSGARVVICDKDESGGRALEQELPGTVFILCDVTQEDDVKTLVSETIRRFGRLDCVVNNAGHHPPPQRPEETSAQGFRQLLELNLLGTYTLTKLALPYLRKSQGNVINISSLVGAIGQAQAVPYVATKGAVTAMTKALALDESPYGVRVNCISPGNIWTPLWEELAALMPDPRATIREGMLAQPLGRMGQPAEVGAAAVFLASEANFCTGIELLVTGGAELGYGCKASRSTPVDAPDIPS [A56T] | with no effect |

Variants of: B1
Details: with ntaq1_human NTAQ1, Q96HA8

| Variant | effect of a mutation on the interaction |
| --- | --- |
| MATGTRYAGKVVVVTGGGRGIGAGIVRAFVNSGARVVICDKDESGGRALEQELPGAVFILCDVTQEDDVKTLVSETIRRFGRLDCVVNNAGHHPPPQRPEETSAQGFRQLLELNLLGTYTLTKLALPYLWKSQGNVINISSLVGAIGQAQAVPYVATKGAVTAMTKALALDESPYGVRVNCISPGNIWTPLWEELAALMPDPRATIREGMLAQPLGRMGQPAEVGAAAVFLASEANFCTGIELLVTGGAELGYGCKASRSTPVDAPDIPS [R130W] | disrupting interaction strength |
| MATGTRYAGKVVVVTGGGRGIGAGIVRAFVNSGARVVICDKDESGGRALEQELPGTVFILCDVTQEDDVKTLVSETIRRFGRLDCVVNNAGHHPPPQRPEETSAQGFRQLLELNLLGTYTLTKLALPYLRKSQGNVINISSLVGAIGQAQAVPYVATKGAVTAMTKALALDESPYGVRVNCISPGNIWTPLWEELAALMPDPRATIREGMLAQPLGRMGQPAEVGAAAVFLASEANFCTGIELLVTGGAELGYGCKASRSTPVDAPDIPS [A56T] | with no effect |

Variants of: B2
Details: with lnx2_human LNX2, Q8N448

| Variant | effect of a mutation on the interaction |
| --- | --- |
| MLCYVTRPDAVLMEVEVEAKANGEDCLNQVCRRLGIIEVDYFGLQFTGSKGESLWLNLRNRISQQMDGLAPYRLKLRVKFFVEPHLILQEQTRHIFFLHIKEALLAGHLLCSPEQAVELSALLAQTKFGDYNQNTAKYNYEELCAKELSSATLNSIVAKHKELEGTSQASAEYQVLQIVSAMENYGIEWHSVRDSEGQKLLIGVGPEGISICKDDFSPINRIAYPVVQMATQSGKNVYLTVTKESGNSIVLLFKMISTRAASGLYRAITETHAFYRCDTVTSAVMMQYSRDLKGHLASLFLNENINLGKKYVFDIKRTSKEVYDHARRALYNAGVVDLVSRSNQSPSHSPLKSSESSMNCSSCEGLSCQQTRVLQEKLRKLKEAMLCMVCCEEEINSTFCPCGHTVCCESCAAQLQSCPVCRSRVEHVQHVYLPTHTSLLNLTVI [N342S] | with no effect |

Variants of: B3
Details: with fbx8_human FBXO8, Q9NRD0

| Variant | effect of a mutation on the interaction |
| --- | --- |
| MDFNMKKLASDAGIFFTRAVQFTEEKFGQAEKTELDAHFENLLARADSTKNWTEKILRQTEVLLQPNPSARVEEFLYEKLDRKVPSRVTNGELLAQYMADAASELGPTTPYGKTLIKVAEAEKQLGAAERDFIHTASISFLTPLRNFLEGDWKTISKERRLLQNRRLDLDACKARLKKAKAAEAKATTVPDFQETRPRNYILSASASALWNDEVDKAEQELRMAQTEFDRQAEVTRLLLEGISSTHVNHLRCLHEFVKSQTTYYAQCYRHMLDLQKQLGRFPGTFVGTTEPASPPLSSTSPTTAAATMPVVPSVASLAPPGEASLCLEEVAPPASGTRKARVLYDYEAADSSELALLADELITVYSLPGMDPDWLIGERGNKKGKVPVTYLELLS [V223M] | with no effect |

Variants of: B4
Details: with ampd2_human AMPD2, Q01433

| Variant | effect of a mutation on the interaction |
| --- | --- |
| MASATAPAAAVPTLASPLEQLRHLAEELRLLLPRVRVGEAQETTEEFNREMFWRRLNEAAVTVSREATTLTIVFSQLPLPSPQETQKFCEQVHAAIKAFIAVYYLLPKDQGITLRKLVRGATLDIVDGMAQLMEVLSVTPTQSPENNDLISYNSVWVACQQMPQIPRDNKAAALLMLTKNVDFVKDAHEEMEQAVEECDPYSGLLNDTEENNSDNHNHEDDVLGFPSNQDLYWSEDDQELIIPCLALVRASKACLKKIRMLVAENGKKDQVAQLDDTVDISDEISPSVDDLALSIYPPMCHLTVRINSAKLVSVLKKALEITKASHVTPQPEDSWIPLLINAIDHCMNRIKELTQSELEL [I277T] | disrupting interaction strength |
